± gives the standard deviation of the averaged measurements.
Experiment: total protein half-life in vivo (active degradation + dilution); higher = more stable protein
[1] = E. coli NCM3722 delta-clpP delta-lon delta-hslV, growth: N-lim chemostat, doubling time 6 h
[2] = E. coli NCM3722 delta-clpP, growth: N-lim chemostat, doubling time 6 h
[3] = E. coli NCM3722 delta-hslV, growth: N-lim chemostat, doubling time 6 h
[4] = E. coli NCM3722 delta-lon, growth: N-lim chemostat, doubling time 6 h
[5] = E. coli NCM3722 delta-smpB, growth: N-lim chemostat, doubling time 6 h
[6] = wild type E. coli NCM3722, growth: C-lim chemostat, doubling time 3 h
[7] = wild type E. coli NCM3722, growth: C-lim chemostat, doubling time 6 h
[8] = wild type E. coli NCM3722, growth: C-lim chemostat, doubling time 12 h
[9] = wild type E. coli NCM3722, growth: N-lim chemostat, doubling time 6 h
[10] = wild type E. coli NCM3722, growth: N-lim chemostat, doubling time 12 h
[11] = wild type E. coli NCM3722, growth: P-lim chemostat, doubling time 6 h
[12] = wild type E. coli NCM3722, growth: P-lim chemostat, doubling time 12 h

| Sequence | total protein half-life in vivo [1] [h] | total protein half-life in vivo [2] [h] | total protein half-life in vivo [3] [h] | total protein half-life in vivo [4] [h] | total protein half-life in vivo [5] [h] | total protein half-life in vivo [6] [h] | total protein half-life in vivo [7] [h] | total protein half-life in vivo [8] [h] | total protein half-life in vivo [9] [h] | total protein half-life in vivo [10] [h] | total protein half-life in vivo [11] [h] | total protein half-life in vivo [12] [h] |
| --- | --- | --- | --- | --- | --- | --- | --- | --- | --- | --- | --- | --- |
| MATIDSMNKDTTRLSDGPDWTFDLLDVYLAEIDRVAKLYRLDTYPHQIEVITSEQMMDAYSSVGMPINYPHWSFGKKFIETERLYKHGQQGLAYEIVINSNPCIAYLMEENTITMQALVMAHACYGHNSFFKNNYLFRSWTDASSIVDYLIFARKYITECEERYGVDEVERLLDSCHALMNYGVDRYKRPQKISLQEEKARQKSREEYLQSQVNMLWRTLPKREEEKTVAEARRYPSEPQENLLYFMEKNAPLLESWQREILRIVRKVSQYFYPQKQTQVMNEGWATFWHYTILNHLYDEGKVTERFMLEFLHSHTNVVFQPPYNSPWYSGINPYALGFAMFQDIKRICQSPTEEDKYWFPDIAGSDWLETLHFAMRDFKDESFISQFLSPKVMRDFRFFTVLDDDRHNYLEISAIHNEEGYREIRNRLSSQYNLSNLEPNIQIWNVDLRGDRSLTLRYIPHNRAPLDRGRKEVLKHVHRLWGFDVMLEQQNEDGSIELLERCPPRMGNL | 4.27 ± 0.81 | 2.4 ± 0.062 | 1.59 ± 0.2 | 1.41 ± 0.15 | 1.49 ± 0.034 | 1.05 ± 0.18 | 1.49 ± 0.059 | 1.94 ± 0.49 | 1.48 ± 0.34 | 1.65 ± 0.15 | 1.48 ± 0.55 | 2.27 ± 0.67 |
| MTTQLEQAWELAKQRFAAVGIDVEEALRQLDRLPVSMHCWQGDDVSGFENPEGSLTGGIQATGNYPGKARNASELRADLEQAMRLIPGPKRLNLHAIYLESDTPVSRDQIKPEHFKNWVEWAKANQLGLDFNPSCFSHPLSADGFTLSHADDSIRQFWIDHCKASRRVSAYFGEQLGTPSVMNIWIPDGMKDITVDRLAPRQRLLAALDEVISEKLNPAHHIDAVESKLFGIGAESYTVGSNEFYMGYATSRQTALCLDAGHFHPTEVISDKISAAMLYVPQLLLHVSRPVRWDSDHVVLLDDETQAIASEIVRHDLFDRVHIGLDFFDASINRIAAWVIGTRNMKKALLRALLEPTAELRKLEAAGDYTARLALLEEQKSLPWQAVWEMYCQRHDTPAGSEWLESVRAYEKEILSRRG | 3.97 ± 0.74 | 2.97 ± 0.12 | – | 3.14 ± 0.07 | 2.94 ± 0.21 | – | 5.85 ± 1.9 | 9.47 | – | 3.73 | 5.31 ± 0.18 | 8.02 ± 5 |
| MRVDAIAKVTGRARYTDDYVMAGMCYAKYVRSPIAHGYAVSINDEQARSLPGVLAIFTWEDVPDIPFATAGHAWTLDENKRDTADRALLTRHVRHHGDAVAIVVARDELTAEKAAQLVSIEWQELPVITTPEAALAEDAAPIHNGGNLLKQSTMSTGNVQQTIDAADYQVQGHYQTPVIQHCHMESVTSLAWMEDDSRITIVSSTQIPHIVRRVVGQALDIPWSCVRVIKPFVGGGFGNKQDVLEEPMAAFLTSKLGGIPVKVSLSREECFLATRTRHAFTIDGQMGVNRDGTLKGYSLDVLSNTGAYASHGHSIASAGGNKVAYLYPRCAYAYSSKTCYTNLPSAGAMRGYGAPQVVFAVESMLDDAATALGIDPVEIRLRNAAREGDANPLTGKRIYSAGLPECLEKGRKIFEWEKRRAECQNQQGNLRRGVGVACFSYTSNTWPVGVEIAGARLLMNQDGTINVQSGATEIGQGADTVFSQMVAETVGVPVSDVRVISTQDTDVTPFDPGAFASRQSYVAAPALRSAALLLKEKIIAHAAVMLHQSAMNLTLIKGHIVLVERPEEPLMSLKDLAMDAFYHPERGGQLSAESSIKTTTNPPAFGCTFVDLTVDIALCKVTINRILNVHDSGHILNPLLAEGQVHGGMGMGIGWALFEEMIIDAKSGVVRNPNLLDYKMPTMPDLPQLESAFVEINEPQSAYGHKSLGEPPIIPVAAAIRNAVKMATGVAINTLPLTPKRLYEEFHLAGLI | 5 | – | – | – | – | 1.88 ± 0.088 | 2.81 ± 0.68 | 3.56 ± 1.4 | – | – | – | – |
| MRIIDNLEQFRQIYASGKKWQRCVEAIENIDNIQPGVAHSIGDSLTYRVETDSATDALFTGHRRYFEVHYYLQGQQKIEYAPKETLQVVEYYRDETDREYLKGCGETVEVHEGQIVICDIHEAYRFICNNAVKKVVLKVTIEDGYFHNK [P0AC73] | – | – | – | – | – | 2.92 ± 0.37 | 6.04 ± 0.63 | 9.85 | – | – | – | – |
| MTNRLVLSGTVCRAPLRKVSPSGIPHCQFVLEHRSVQEEAGFHRQAWCQMPVIVSGHENQAITHSITVGSRITVQGFISCHKAKNGLSKMVLHAEQIELIDSGD | – | – | – | – | 4.72 | 2.97 | – | – | 5.76 | – | – | 15.6 |
| MIIGNIHNLQPWLPQELRQAIEHIKAHVTAETPKGKHDIEGNRLFYLISEDMTEPYEARRAEYHARYLDIQIVLKGQEGMTFSTQPAGAPDTDWLADKDIAFLPEGVDEKTVILNEGDFVVFYPGEVHKPLCAVGAPAQVRKAVVKMLMA [P0AF96] | 4.25 ± 0.25 | 4.23 ± 2.1 | 3.43 | – | 3.75 ± 0.1 | – | – | 8.12 ± 0.22 | 3.18 ± 0.1 | 5.175 ± 0.0007 | 4.55 ± 0.89 | 10.1 ± 0.29 |
| MKKIGVAGLQREQIKKTIEATAPGCFEVFIHNDMEAAMKVKSGQLDYYIGACNTGAGAALSIAIAVIGYNKSCTIAKPGIKAKDEHIAKMIAEGKVAFGLSVEHVEHAIPMLINHLK | – | – | 4.29 | – | – | 3.02 | – | – | – | – | – | – |
